Laboratory results: patent US20220062148

Tests used:
[1] = molecular target: T1, Peptide sequence WGNRSPLE
T1 chain: WGNRSPLE

[2] = molecular target: T2, Peptide sequence QGKKAPXX
T2 chain: QGKKAP

[3] = molecular target: T3, Peptide sequence QAVRPNGM
T3 chain: QAVRPNGM

[4] = molecular target: T4, Peptide sequence FDNRVGKW
T4 chain: FDNRVGKW

[5] = molecular target: T5, Peptide sequence XIARQPWN
T5 chain: ARQPWN

B1: Atlantic cod trypsin I (protein)
chain: IVGGYECTKHSQAHQVSLNSGYHFCGGSLVSKDWVVSAAHCYKSVLRVRLGEHHIRVNEGTEQYISSSSVIRHPNYSSYNINNDIMLIKLTKPATLNQYVHAVALPTECAADATMCTVSGWGNTMSSVADGDKLQCLSLPILSHADCANSYPGMITQSMFCAGYLEGGKDSCQGDSGGPVVCNGVLQGVVSWGYGCAERDHPGVYAKVCVLSGWVRDTMANY
165000: Ion Precursor Intensities, 60′ incubation (multiplex substrate profiling, cleavage) [4]
189000: Ion Precursor Intensities, 60′ incubation (multiplex substrate profiling, cleavage) [5]
0: Ion Precursor Intensities, 5′ incubation (multiplex substrate profiling, cleavage) [1] | Ion Precursor Intensities, 15′ incubation (multiplex substrate profiling, cleavage) [1] | Ion Precursor Intensities, 60′ incubation (multiplex substrate profiling, cleavage) [1] | Ion Precursor Intensities, 5′ incubation (multiplex substrate profiling, cleavage) [2] | Ion Precursor Intensities, 15′ incubation (multiplex substrate profiling, cleavage) [2] | Ion Precursor Intensities, 60′ incubation (multiplex substrate profiling, cleavage) [2] | Ion Precursor Intensities, 5′ incubation (multiplex substrate profiling, cleavage) [3] | Ion Precursor Intensities, 15′ incubation (multiplex substrate profiling, cleavage) [3] | Ion Precursor Intensities, 60′ incubation (multiplex substrate profiling, cleavage) [3] | Ion Precursor Intensities, 5′ incubation (multiplex substrate profiling, cleavage) [4] | Ion Precursor Intensities, 15′ incubation (multiplex substrate profiling, cleavage) [4] | Ion Precursor Intensities, 5′ incubation (multiplex substrate profiling, cleavage) [5] | Ion Precursor Intensities, 15′ incubation (multiplex substrate profiling, cleavage) [5]
